In US10266842B2 (priority 2013, dated 2019):

B1: LserFCP1-73: 73-residue polypeptide of SEQ ID No. 2; LserFCP1-77 lacking the last four residues, made recombinantly in E. coli (protein, listed as Lucilia sericata)
chain: QHGYGAGGHGQQGYGSQHSSHAPQGGHVVREQGFSGHVHEQQAGHHHEAGHHEQAGHHEQSGQQVHGQGHGYK
B2: LserFCP1-77: 77-residue polypeptide of SEQ ID No. 1 (Lucilia sericata), prepared by solid-phase synthesis or recombinantly in E. coli (protein, listed as Lucilia sericata)
chain: QHGYGAGGHGQQGYGSQHSSHAPQGGHVVREQGFSGHVHEQQAGHHHEAGHHEQAGHHEQSGQQVHGQGHGYKSHGY

Tested on: Fusarium graminearum (Strain IFA 65)
Type: cell-based

Molecule	inhibition of spore germination (100 μM, compared to a water control (FIG. 9))	IC50 (Fusarium graminearum spores, 24 h at room temperature, from dose-effect relationship (FIG. 8), read-out: concentration in which a half-maximum inhibition (of spore germination) occurred) [nM]
B1	complete inhibition	
B2		1600
